Publication PMC6586995

What was measured:
Assay in all cases: SPR
[1] = target: T1, integrin α5β1 (soluble, SPR) (Homo sapiens, UniProt P08648;P05556 42-995;21-728)
integrin αvβ3 = integrin αvβ3 (Homo sapiens, UniProt P06756;P05106 31-992;27-718)
[2] = target: T1, integrin α5β1 (soluble, SPR); remark: listed apart in the source

T1 sequence (P08648 42-995, chain 1 of 2): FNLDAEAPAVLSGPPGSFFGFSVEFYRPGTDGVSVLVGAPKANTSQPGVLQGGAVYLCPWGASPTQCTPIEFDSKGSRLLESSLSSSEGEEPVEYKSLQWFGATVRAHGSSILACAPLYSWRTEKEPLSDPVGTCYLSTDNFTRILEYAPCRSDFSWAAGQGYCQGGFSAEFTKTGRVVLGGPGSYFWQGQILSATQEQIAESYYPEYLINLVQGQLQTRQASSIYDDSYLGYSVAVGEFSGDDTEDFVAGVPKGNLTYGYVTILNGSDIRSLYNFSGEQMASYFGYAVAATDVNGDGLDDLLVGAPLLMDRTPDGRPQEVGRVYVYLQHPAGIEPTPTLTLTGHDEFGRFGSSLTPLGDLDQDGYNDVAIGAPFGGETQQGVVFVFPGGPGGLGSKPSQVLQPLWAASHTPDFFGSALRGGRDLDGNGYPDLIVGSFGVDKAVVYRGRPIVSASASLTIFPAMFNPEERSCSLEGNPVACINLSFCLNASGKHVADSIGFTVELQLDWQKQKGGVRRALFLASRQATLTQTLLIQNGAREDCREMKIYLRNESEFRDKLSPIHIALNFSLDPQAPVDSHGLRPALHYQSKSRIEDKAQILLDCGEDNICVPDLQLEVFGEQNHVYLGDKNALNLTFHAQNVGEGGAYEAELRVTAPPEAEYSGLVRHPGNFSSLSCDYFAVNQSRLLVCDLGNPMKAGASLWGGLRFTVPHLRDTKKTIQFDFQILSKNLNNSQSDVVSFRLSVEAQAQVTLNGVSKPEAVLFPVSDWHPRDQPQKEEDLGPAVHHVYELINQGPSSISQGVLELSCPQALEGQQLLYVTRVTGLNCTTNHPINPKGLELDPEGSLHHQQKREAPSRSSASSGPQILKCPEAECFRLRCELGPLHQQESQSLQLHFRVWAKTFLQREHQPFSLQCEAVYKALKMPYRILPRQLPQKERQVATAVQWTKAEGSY
T1 sequence (P05556 21-728, chain 2 of 2): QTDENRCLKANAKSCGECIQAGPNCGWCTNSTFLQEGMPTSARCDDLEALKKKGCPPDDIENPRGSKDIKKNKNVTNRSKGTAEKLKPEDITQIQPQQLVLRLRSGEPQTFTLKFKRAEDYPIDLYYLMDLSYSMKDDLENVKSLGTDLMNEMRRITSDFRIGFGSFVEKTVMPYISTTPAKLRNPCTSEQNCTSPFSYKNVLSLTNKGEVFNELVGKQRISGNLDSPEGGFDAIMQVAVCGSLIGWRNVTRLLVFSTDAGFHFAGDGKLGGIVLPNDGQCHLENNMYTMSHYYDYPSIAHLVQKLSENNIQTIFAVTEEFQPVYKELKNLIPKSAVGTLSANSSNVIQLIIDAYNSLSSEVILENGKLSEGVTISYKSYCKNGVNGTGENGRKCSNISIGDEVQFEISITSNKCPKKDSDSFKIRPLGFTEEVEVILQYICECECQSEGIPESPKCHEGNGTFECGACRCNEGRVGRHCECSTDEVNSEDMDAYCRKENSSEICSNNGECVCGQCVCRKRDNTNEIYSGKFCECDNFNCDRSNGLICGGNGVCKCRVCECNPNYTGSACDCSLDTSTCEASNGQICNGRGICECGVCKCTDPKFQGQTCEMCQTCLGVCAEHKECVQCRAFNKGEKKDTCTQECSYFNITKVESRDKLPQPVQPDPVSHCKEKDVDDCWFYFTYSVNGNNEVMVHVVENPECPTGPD
Chain of integrin αvβ3 (P06756 31-992, chain 1 of 2): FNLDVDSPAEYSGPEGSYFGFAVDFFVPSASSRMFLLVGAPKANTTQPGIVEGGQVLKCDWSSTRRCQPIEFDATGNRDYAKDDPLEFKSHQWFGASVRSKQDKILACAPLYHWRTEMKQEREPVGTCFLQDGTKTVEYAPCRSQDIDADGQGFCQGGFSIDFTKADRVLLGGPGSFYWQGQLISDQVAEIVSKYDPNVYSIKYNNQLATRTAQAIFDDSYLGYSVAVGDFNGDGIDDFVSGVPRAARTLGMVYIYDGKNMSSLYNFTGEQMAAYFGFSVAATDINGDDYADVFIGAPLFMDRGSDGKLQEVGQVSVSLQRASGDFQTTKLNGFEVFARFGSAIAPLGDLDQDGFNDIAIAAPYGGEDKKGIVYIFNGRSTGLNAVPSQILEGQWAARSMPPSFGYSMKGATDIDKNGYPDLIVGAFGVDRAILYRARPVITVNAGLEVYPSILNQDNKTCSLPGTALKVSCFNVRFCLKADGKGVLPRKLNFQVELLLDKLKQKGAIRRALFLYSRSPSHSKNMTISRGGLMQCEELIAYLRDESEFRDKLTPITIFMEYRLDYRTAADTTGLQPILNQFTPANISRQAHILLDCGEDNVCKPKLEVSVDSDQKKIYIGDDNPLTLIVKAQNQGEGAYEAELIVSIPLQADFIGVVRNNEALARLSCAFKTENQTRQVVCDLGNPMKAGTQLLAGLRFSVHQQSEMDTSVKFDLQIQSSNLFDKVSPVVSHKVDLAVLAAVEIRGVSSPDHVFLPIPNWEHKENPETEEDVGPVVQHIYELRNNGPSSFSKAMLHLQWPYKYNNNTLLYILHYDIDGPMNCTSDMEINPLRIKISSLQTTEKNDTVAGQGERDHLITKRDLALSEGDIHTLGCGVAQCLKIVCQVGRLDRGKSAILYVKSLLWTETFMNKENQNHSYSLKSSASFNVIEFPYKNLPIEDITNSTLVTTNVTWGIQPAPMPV
Chain of integrin αvβ3 (P05106 27-718, chain 2 of 2): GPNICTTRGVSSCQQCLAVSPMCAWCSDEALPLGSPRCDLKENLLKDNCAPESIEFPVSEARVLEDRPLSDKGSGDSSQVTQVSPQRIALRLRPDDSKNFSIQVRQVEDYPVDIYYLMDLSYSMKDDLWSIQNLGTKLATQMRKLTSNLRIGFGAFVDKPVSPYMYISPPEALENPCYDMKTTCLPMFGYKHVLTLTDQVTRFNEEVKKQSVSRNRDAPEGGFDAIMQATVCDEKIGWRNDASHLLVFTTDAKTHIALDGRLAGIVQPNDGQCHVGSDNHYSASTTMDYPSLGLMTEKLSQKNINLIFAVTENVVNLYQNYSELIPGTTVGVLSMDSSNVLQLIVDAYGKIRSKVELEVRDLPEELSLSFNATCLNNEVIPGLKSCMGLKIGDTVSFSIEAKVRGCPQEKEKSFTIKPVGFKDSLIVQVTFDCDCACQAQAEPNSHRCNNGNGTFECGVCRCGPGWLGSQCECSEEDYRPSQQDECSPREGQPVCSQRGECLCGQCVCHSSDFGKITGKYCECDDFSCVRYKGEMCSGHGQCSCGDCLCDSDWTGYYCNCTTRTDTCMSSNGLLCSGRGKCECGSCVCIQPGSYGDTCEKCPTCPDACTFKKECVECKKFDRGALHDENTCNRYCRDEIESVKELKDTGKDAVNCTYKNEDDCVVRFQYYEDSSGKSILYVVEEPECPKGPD

B1: aptamer H02-2'F (XNA)
RNA: GGUUACCAGCCUUCACUGCGGACGGACAGAGAGUGCAACCUGCCGUGCCGCACCACGGUCGGUCACAC
modifications: 2'-fluoro pyrimidines
With B1 the Kd [1] was 72 ± 11 nM and the binding result (integrin αvβ3) was “no binding”.

B2: aptamer B03 (biotinylated, SPR) (structured_RNA)
RNA: GGUUACCAGCCUUCACUGCGCCCAGUCACUGCACGAAUCAGUGAUGGCCGCACCACGGUCGGUCACAC
modifications: 2'-fluoro pyrimidines? (not stated for B03)
B2: no binding [2].
